Measurements as given in the supplement of paper PMC12764529.
± gives the half width of the 95% confidence interval.

Columns and labels:
[1] = folding stability dG unfold (combined trypsin and chymotrypsin); higher = more stable
In short: (§1)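 Only designs with AlphaFold2 dimer inter-PAE above 15 were retained; each was a mini-protein under 80 residues with no cysteine, in a PA-tagged cDNA display construct. After digestion with trypsin and chymotrypsin and sequencing, K50 was inferred by Bayesian fitting of counts, and unfolding free energy was derived per protease or combined against a sequence-predicted unfolded-state K50 and a shared folded-state K50.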

[2] = folding stability dG unfold from chymotrypsin proteolysis; higher = more stable
In short: as §1

[3] = folding stability dG unfold from trypsin proteolysis; higher = more stable
In short: as §1

Sequence | folding stability dG unfold [1] | folding stability dG unfold [2] | folding stability dG unfold [3]
SAGGVTVSLSDPLSGNITTVPVAPNSTVTVTTSASLGGPNYTITTTVTVTLNGSTPVFTITSTVTPLSSAGG [r19_331_JUSTAS] | 3.41 ± 0.17 kcal/mol | 3.54 ± 0.071 kcal/mol | 3.08 ± 0.16 kcal/mol
SAGGSAMTIYIKNKDGYIIKIEITKIEEIGPNYIKIKMKMEIINKNGEKKEIELELIFKVKNPEELSAGGSA [r15_1035_TrROS_Hall] | 3.79 ± 0.28 kcal/mol | 4 ± 0.099 kcal/mol | 2.54 ± 0.33 kcal/mol
SAGGSAGGSAMKIVKITTTQLPNGTTKVTVTFSDGSTKTVTIPPNQPGKSAEEVAKKVLLESAGGSAGGSAG [r3_368_JUSTAS] | 2.96 ± 0.087 kcal/mol | 3.37 ± 0.054 kcal/mol | 1.8 ± 0.055 kcal/mol
SAGGSAGGSPIVVDSPEDIEKAIEEAIASGAKSIVEVGPNRVRVVFVIPGEPKVFVLELPLNGSAGGSAGGS [r12_368_TrMRF] | 1.79 ± 0.11 kcal/mol | 1.93 ± 0.092 kcal/mol | 1.42 ± 0.051 kcal/mol
SAGGYKITIPAMFDTPEDALDQVREIARSLGYRITDIKNVEVHKHEDNGMVMVEATIKIEPLPKGQLSAGGS [r16_155_TrROS] | 1.97 ± 0.12 kcal/mol | 2.07 ± 0.074 kcal/mol | 1.77 ± 0.042 kcal/mol
SAGGDPSATPVVVEFTLPDGARAVATTFPSGVVVARVFNPVTGRTTEVTVTVVPESATATVTVRPNPDSAGG [r13_822_TrMRF] | 1.02 ± 0.053 kcal/mol | 1.13 ± 0.067 kcal/mol | 0.762 ± 0.027 kcal/mol
SAGGSAGGKLKKFKIKEIKIEKNKETNTYTVTITLENGEKLTITAKSKEDAEKALRKLKEAGLLSAGGSAGG [r6_65_TrROS_Hall] | 3.02 ± 0.2 kcal/mol | 3.39 ± 0.098 kcal/mol | 2.81 ± 0.086 kcal/mol
SAPLDPDQAKEQAENIADYFQDEMQDQFGMDPSDIDVDVKVEQEPNGHYRITVEITMGNMPIEMEIYVPSAG [r14_226_TrROS] | 1.8 ± 0.12 kcal/mol | 2.1 ± 0.049 kcal/mol | 1.45 ± 0.11 kcal/mol
SKTVVIKIDNRVPVPKSDKYVPIKEEFFLKVINEIKKKGYKVIITGANPDNPLAKEVAKKAKELGFEVVGSA [r9_468_TrMRF] | 0.922 ± 0.065 kcal/mol | 0.805 ± 0.082 kcal/mol | 0.992 ± 0.014 kcal/mol
SDRIEIEIWRHPNWWMIKIKVRDDGEPVGTQSFPVDDGMDIEEIADNLLNRNPNYKVEITEIEPMPPPPGSA [r9_364_TrROS] | 3.36 ± 0.41 kcal/mol | 3.82 ± 0.12 kcal/mol | 2.86 ± 0.16 kcal/mol
SAGGSAGGSKRKIKVDDVEPPPNGFMRVTLEVDDGKPLVPINIPPGQTPSEVKDQVKDLVEELSAGGSAGGS [r12_798_TrROS] | 3.85 ± 0.49 kcal/mol | 3.74 ± 0.41 kcal/mol | 3.86 ± 0.31 kcal/mol
SAGGSAMVRIEVELENGEKLEIEIEVPEEMTEEELLEKAKELAKELAEKLGIPEAKVKVVKIEVVPSAGGSA [r15_463_TrROS_Hall] | 3.92 ± 0.23 kcal/mol | 2.92 ± 0.22 kcal/mol | 4.06 ± 0.16 kcal/mol
SAGGSAGGSAGEFELLSVEYFPPIGRVRVAYRRGDLVLVVDFFNPENPEIRPVSLSDELGSAGGSAGGSAGG [r17_145_TrMRF] | 2.59 ± 0.18 kcal/mol | 2.48 ± 0.057 kcal/mol | 2.64 ± 0.067 kcal/mol
SAGGSAGGKSYVRLEVYRRNPETDEWEKIRTEVLETDAASGEEVRRRALERVPEDYLVKVELFPSAGGSAGG [r6_623_TrMRF] | 2.62 ± 0.062 kcal/mol | 2.872 ± 0.028 kcal/mol | 2.01 ± 0.046 kcal/mol
SAGGVVYYATFTIYDPKRKLPNGELAYEETPIYKKFDPKEIEKFIKELKDKLKKEGRKIKAEITKVLSAGGS [r8_10_JUSTAS] | 1.45 ± 0.4 kcal/mol | 1.77 ± 0.29 kcal/mol | 1.28 ± 0.15 kcal/mol
SAGGPMYIVIKVEVWNPDNGKKREINIVIPIPPGMTPEQMLEKAKELARTIAEENGYEVRIDEIHIFSAGGS [r8_312_TrROS] | 3.03 ± 0.098 kcal/mol | 2.862 ± 0.02 kcal/mol | 3.13 ± 0.087 kcal/mol
SAGGSAGGPLVVILPDPETGLFHVRVRYPDGTVESLGPFPSLEEALEALPSEGLGRVEVRPYLKSAGGSAGG [r6_307_TrMRF] | 1.28 ± 0.049 kcal/mol | 1.44 ± 0.038 kcal/mol | 1.05 ± 0.014 kcal/mol
SMETLEIEITVKVEKDENGKIRKVSVEELKEELEKAGFKITEIEITEVTENTVKIKIKIEKPEEEEEEEESA [r9_225_TrROS_Hall] | 3.25 ± 0.55 kcal/mol | 3.26 ± 0.24 kcal/mol | 2.97 ± 0.36 kcal/mol
SAGGMVKTITKPMPLEELEKVYEEAKEAIEAGYEVIFTYPLPDGTTITIKTDYETKKIVEIKTSKPVSSAGG [r13_873_JUSTAS] | 0.687 ± 0.28 kcal/mol | 1.09 ± 0.059 kcal/mol | -0.345 ± 0.67 kcal/mol
SPVVVTTSPGPDGGARVTIYFPKTGKPIEFDITDPDLVEESTSDPNTRVDIPEEVLRSLAPDLFTGFTTESA [r9_390_TrMRF] | 0.362 ± 0.065 kcal/mol | 0.241 ± 0.1 kcal/mol | 0.497 ± 0.046 kcal/mol
SAGGSAGGSMKTITVPPEVLAALPLEEIVERNTSPDEEVEVEFVEEPGPVTVIIDTKKKPEHHSAGGSAGGS [r12_716_JUSTAS] | 0.252 ± 0.092 kcal/mol | 0.551 ± 0.015 kcal/mol | -0.95 ± 0.26 kcal/mol

Sequence | folding stability dG unfold [1] | folding stability dG unfold [2] | folding stability dG unfold [3]
SAGGSKLPKNSKVLIIDLGAPKGIKPNDKVKIPKELIKKIKEKNPNVKFYKEYNIGNKTYIFIVIDSAGGSA [r2_383_TrMRF] | 1.96 ± 0.12 kcal/mol | 2.39 ± 0.059 kcal/mol | 1.31 ± 0.067 kcal/mol
SAGGSAGGSSLEEIAKKLGLKPGMRVRLSDGKVLEVPSLDDLKAALEAGLSLEELKKIEIEPVSAGGSAGGS [r12_430_TrROS_Hall] | 1.42 ± 0.12 kcal/mol | 1.68 ± 0.04 kcal/mol | 1.13 ± 0.023 kcal/mol
SAGGSAETITVMIPPNFLKKLKDQGIKIPPGYPWITITVTYNPDGKIKIKVQIQPMPPVSPEDMKKSAGGSA [r15_322_TrROS] | 2.29 ± 0.34 kcal/mol | 2.72 ± 0.3 kcal/mol | 1.44 ± 0.091 kcal/mol
AFTITGIEVTYDPATNTVTVTATVTGPDGSTATVTLTLTLPAPPPPVTTVTRTETRTLPDGTTVTVTETFTS [r1_125_TrROS_Hall] | 3.43 ± 0.13 kcal/mol | 4.09 ± 0.048 kcal/mol | 2.21 ± 0.037 kcal/mol
SAGGEMTAEERARRLAERLAEELERRTGRKVEVVSVEVEYDPETDEVTVRIEIRLEDGSTLTIELRLSAGGS [r8_372_TrROS_Hall] | 4.33 ± 0.27 kcal/mol | 3.41 ± 0.11 kcal/mol | 4.86 ± 0.26 kcal/mol
SAGGSAGGSPVPVKVEKKPTKENKELIITYYPDGKVRVTTYTYDENGNKISEKEEIIPKSEVKLSAGGSAGG [r6_579_JUSTAS] | 1.37 ± 0.061 kcal/mol | 1.58 ± 0.032 kcal/mol | 0.81 ± 0.032 kcal/mol
SAGGSAGKKPVEFKVKIMIFNPENGDMYMIEMTITIDPDGQIKIKIKLPDPPRLPPGMVIFIMVYISAGGSA [r15_488_TrROS] | 5.01 ± 0.16 kcal/mol | 5.24 ± 0.085 kcal/mol | 4.08 ± 0.16 kcal/mol
SAGGSAGGSAPNMDWVMIPIRVPPGEPPKVKITFPDGPTREFDPGRWVWIWFPPGDPMKIEPESAGGSAGGS [r12_553_TrROS] | 1.54 ± 0.15 kcal/mol | 1.87 ± 0.13 kcal/mol | 1.04 ± 0.035 kcal/mol
SAGGSAGGSAGVVDEVKAALEPQGLKVLSVTPGSSSVTVTVLDPKKGETTTFTIPLDDPLSAGGSAGGSAGG [r11_428_JUSTAS] | 1.22 ± 0.057 kcal/mol | 1.28 ± 0.088 kcal/mol | 1.02 ± 0.029 kcal/mol
SAGGSAGGSEEKKIKIKIKIERDPENPNTYRITIEDEETGERYELEITVPPPKPKVFFFPKKKSAGGSAGGS [r12_985_TrROS_Hall] | 2.18 ± 0.17 kcal/mol | 2.19 ± 0.12 kcal/mol | 2.24 ± 0.023 kcal/mol
SAGGSKTIEVEIKVPPGMTPEEVAKKLAEELKKAGIEVKVVKVEYDEEKGTVRITLDDGSEVELKVSAGGSA [r2_242_TrROS_Hall] | 1.58 ± 0.39 kcal/mol | 1.98 ± 0.1 kcal/mol | 1.35 ± 0.093 kcal/mol
SAMMYLIRVTITVKNKETGEEKEIEVEILIEKEEGELTEEEIEELARKLAEELGLEVEEIKIEIEPLPESAG [r14_278_TrROS_Hall] | 5.3 ± 0.24 kcal/mol | 5.28 ± 0.16 kcal/mol | 4.34 ± 0.2 kcal/mol
SDMKIRIDDIDIQPLDEDGQPITINYKIEFGGQPVYFQIEIWVKPDGPVVIKIDIYNPDNGKPFEWTFPISA [r9_241_TrROS] | 2.48 ± 0.23 kcal/mol | 2.83 ± 0.08 kcal/mol | 2.13 ± 0.09 kcal/mol
SAGGSAGGSALEVPSNYLVEVRFPNETRLIPVEDLDAFFEAYPDVPWTDIRVLDPKTGKPISAGGSAGGSAG [r3_134_TrMRF] | 2.19 ± 0.032 kcal/mol | 1.923 ± 0.0098 kcal/mol | 2.47 ± 0.04 kcal/mol
SAGGMKLTPEELKGKTIRIRIKVNGKEYEIEAKVVEVDGELYIEVKIINKETKEEKTITIPLDDVEIVSAGG [r13_289_TrROS_Hall] | 2.39 ± 0.25 kcal/mol | 2.1 ± 0.064 kcal/mol | 2.67 ± 0.072 kcal/mol
SAGGSAGGSAEVEIEVDKETKELYIKDSNGKVKKIKVKVVKVEVKKPVVTLPKEELSEEELKSAGGSAGGSA [r18_59_TrROS_Hall] | 0.258 ± 0.33 kcal/mol | -0.357 ± 0.17 kcal/mol | 0.818 ± 0.084 kcal/mol
SAGGSAGGSELEKALASAKPGEEVTVTVESTTPDGTPSVEIVEVKVEAETPSPGKENLEKNRLVSAGGSAGG [r6_893_JUSTAS] | -0.112 ± 0.44 kcal/mol | 0.0837 ± 0.065 kcal/mol | -0.602 ± 0.23 kcal/mol
SAGKTIVVPTEEEAEKLAKELAEETGKEVEIVKVEKEKKKDGYEVYTIKVKLKDNNKTIEIKIVRPKEKSAG [r5_173_TrROS_Hall] | 1.55 ± 0.25 kcal/mol | 1.47 ± 0.11 kcal/mol | 1.52 ± 0.17 kcal/mol
SAGGSAGGKILVIEIEVDSPEKAVEKAKEIVKELGLPESVKIKEIVFFKEEGDKYRALVLVDLDSAGGSAGG [r6_282_TrMRF] | 3.95 ± 0.2 kcal/mol | 4.09 ± 0.095 kcal/mol | 3.66 ± 0.23 kcal/mol
SAGGMTPVPVKLLSEESSSVSTLPNGETVTTTPSLAYSPLGFYVLTTTTTYPATPVTTTTSTVVPLSVSAGG [r19_320_JUSTAS] | 0.223 ± 0.16 kcal/mol | -0.151 ± 0.22 kcal/mol | 0.458 ± 0.041 kcal/mol
SAGGSAGGSAKLEYDDDYVEIEFKVPDGPIMIYIPDWGWMIWIWPGKEVTIRFPIPKPPDNSAGGSAGGSAG [r3_185_TrROS] | 3.43 ± 0.22 kcal/mol | 4.03 ± 0.24 kcal/mol | 2.41 ± 0.089 kcal/mol
